Data as given in patent US20130129763A1 (ARNE FORSGREN, published 2013).
Where two headings read alike, the source gives them in different places.

Columns and labels:
[1] = target: UspA2 on the surface of M. catarrhalis (clinical isolates BBH18 and RH4) (Moraxella catarrhalis); test: flow cytometry on M. catarrhalis RH4 ΔuspA1 (UspA2 left on the surface) incubated with EDTA-treated normal human serum: rabbit anti-C3d pAb + FITC anti-rabbit pAb; same column: wild type mfi 5.4, Δmid mfi 5.7 (both carry UspA1 and UspA2), ΔuspA1/A2 mfi 0.8
[2] = target: UspA1 on the surface of M. catarrhalis (clinical isolates BBH18 and RH4) (Moraxella catarrhalis); test: flow cytometry on M. catarrhalis RH4 ΔuspA2 (UspA1 left on the surface) incubated with EDTA-treated normal human serum: rabbit anti-C3d pAb + FITC anti-rabbit pAb; same column: wild type mfi 5.4, Δmid mfi 5.7 (both carry UspA1 and UspA2), ΔuspA1/A2 mfi 0.8
[3] = target: UspA1 on the surface of M. catarrhalis (clinical isolates BBH18 and RH4) (Moraxella catarrhalis); test: flow cytometry on M. catarrhalis RH4 ΔuspA2 (UspA1 left on the surface) incubated with C3met: rabbit anti-C3d pAb + FITC anti-rabbit pAb; same column: wild type mfi 22.1, Δmid mfi 23.4 (both carry UspA1 and UspA2), ΔuspA1/A2 mfi 0.3
[4] = target: UspA2 on the surface of M. catarrhalis (clinical isolates BBH18 and RH4) (Moraxella catarrhalis); test: flow cytometry on M. catarrhalis RH4 ΔuspA1 (UspA2 left on the surface) incubated with C3met: rabbit anti-C3d pAb + FITC anti-rabbit pAb; same column: wild type mfi 22.1, Δmid mfi 23.4 (both carry UspA1 and UspA2), ΔuspA1/A2 mfi 0.3
[5] = target: T1, Engelbreth-Holm-Swarm mouse sarcoma laminin (Sigma) (mouse, UniProt P19137 25-3083; P02469 22-1786; P02468 34-1607); test: ELISA: 40 nM protein coated, laminin 20 µg/ml, rabbit anti-laminin pAb + HRP anti-rabbit pAb
T1 construct: also called soluble laminin

[6] = target: T2, fibronectin (Sigma), soluble (UniProt P02751 32-2296); test: competition, flow cytometry: fibronectin pre-incubated with the UspA1 fragment, then M. catarrhalis added; fibronectin left bound to the bacteria detected with anti-fibronectin pAb
T2 construct: also called soluble fibronectin; 125I-labeled fibronectin
T2 sequence (P02751 other isoform, or with tags, fused parts or gaps limits assumed): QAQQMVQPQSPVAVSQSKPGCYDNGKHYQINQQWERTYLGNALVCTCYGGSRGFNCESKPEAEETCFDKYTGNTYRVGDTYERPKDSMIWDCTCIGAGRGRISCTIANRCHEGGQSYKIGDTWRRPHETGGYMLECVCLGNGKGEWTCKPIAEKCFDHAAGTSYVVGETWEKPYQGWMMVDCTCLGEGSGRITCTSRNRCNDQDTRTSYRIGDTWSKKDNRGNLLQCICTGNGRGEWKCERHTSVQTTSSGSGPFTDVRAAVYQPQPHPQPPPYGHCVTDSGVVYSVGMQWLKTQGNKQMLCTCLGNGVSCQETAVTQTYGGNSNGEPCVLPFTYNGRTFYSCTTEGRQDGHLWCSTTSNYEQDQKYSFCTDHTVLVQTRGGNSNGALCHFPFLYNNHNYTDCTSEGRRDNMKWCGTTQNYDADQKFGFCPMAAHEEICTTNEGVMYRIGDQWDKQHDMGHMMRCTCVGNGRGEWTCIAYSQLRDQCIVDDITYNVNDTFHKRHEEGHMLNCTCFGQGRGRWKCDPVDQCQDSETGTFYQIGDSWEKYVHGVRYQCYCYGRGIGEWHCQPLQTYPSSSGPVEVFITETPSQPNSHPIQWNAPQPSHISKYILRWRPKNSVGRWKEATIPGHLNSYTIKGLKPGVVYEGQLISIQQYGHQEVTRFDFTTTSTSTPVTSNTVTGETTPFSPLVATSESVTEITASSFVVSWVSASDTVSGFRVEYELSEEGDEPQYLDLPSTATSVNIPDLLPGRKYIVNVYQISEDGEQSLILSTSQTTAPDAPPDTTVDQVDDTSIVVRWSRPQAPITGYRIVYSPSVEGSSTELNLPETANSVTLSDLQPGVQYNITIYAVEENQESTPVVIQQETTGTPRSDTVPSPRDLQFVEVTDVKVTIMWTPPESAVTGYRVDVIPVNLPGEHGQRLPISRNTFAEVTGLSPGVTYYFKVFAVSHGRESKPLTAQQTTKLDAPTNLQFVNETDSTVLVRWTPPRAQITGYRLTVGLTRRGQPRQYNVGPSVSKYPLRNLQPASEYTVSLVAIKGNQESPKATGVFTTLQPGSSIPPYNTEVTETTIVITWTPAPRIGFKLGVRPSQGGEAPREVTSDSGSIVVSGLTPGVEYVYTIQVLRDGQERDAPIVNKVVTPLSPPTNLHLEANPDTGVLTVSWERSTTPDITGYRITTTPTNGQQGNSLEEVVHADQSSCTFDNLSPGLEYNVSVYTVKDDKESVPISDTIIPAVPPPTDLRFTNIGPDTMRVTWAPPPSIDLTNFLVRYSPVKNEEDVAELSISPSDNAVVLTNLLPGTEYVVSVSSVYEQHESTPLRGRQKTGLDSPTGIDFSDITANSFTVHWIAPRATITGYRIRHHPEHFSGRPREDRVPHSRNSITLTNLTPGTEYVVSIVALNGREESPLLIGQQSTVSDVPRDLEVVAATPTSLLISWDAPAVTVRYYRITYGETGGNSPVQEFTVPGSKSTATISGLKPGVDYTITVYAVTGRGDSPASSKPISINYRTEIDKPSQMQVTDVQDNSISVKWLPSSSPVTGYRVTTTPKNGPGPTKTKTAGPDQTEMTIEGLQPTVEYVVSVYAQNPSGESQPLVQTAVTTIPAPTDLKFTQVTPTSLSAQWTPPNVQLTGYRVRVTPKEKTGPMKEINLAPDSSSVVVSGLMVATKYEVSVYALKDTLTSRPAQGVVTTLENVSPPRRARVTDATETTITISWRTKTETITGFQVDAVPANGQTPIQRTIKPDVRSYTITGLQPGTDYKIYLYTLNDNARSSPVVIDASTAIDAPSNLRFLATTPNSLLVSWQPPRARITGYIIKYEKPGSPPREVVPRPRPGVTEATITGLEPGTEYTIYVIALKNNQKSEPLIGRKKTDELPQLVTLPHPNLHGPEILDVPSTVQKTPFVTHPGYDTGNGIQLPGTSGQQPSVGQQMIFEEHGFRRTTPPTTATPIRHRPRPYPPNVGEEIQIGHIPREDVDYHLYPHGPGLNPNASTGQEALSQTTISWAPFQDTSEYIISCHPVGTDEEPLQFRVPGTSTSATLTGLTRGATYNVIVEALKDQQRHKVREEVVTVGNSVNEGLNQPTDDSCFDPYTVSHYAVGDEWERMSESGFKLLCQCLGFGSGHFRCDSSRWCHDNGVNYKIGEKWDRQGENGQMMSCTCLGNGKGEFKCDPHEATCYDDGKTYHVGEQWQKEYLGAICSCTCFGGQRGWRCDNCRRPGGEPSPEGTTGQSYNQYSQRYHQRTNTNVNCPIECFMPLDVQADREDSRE

[7] = target: T1, Engelbreth-Holm-Swarm mouse sarcoma …; test: ELISA: 40 nM protein coated, laminin 20 µg/ml, rabbit anti-laminin pAb + HRP anti-rabbit pAb; remark: listed apart in the source
[8] = target: T1, Engelbreth-Holm-Swarm mouse sarcoma …; test: as above; remark: listed apart in the source
[9] = target: T1, Engelbreth-Holm-Swarm mouse sarcoma …; test: as above; remark: listed apart in the source
[10] = target: T2, fibronectin (Sigma), soluble; test: ELISA: 40 nM fragment coated, fibronectin 120 µg/ml, rabbit anti-fibronectin pAb + HRP anti-rabbit pAb
[11] = target: T1, Engelbreth-Holm-Swarm mouse sarcoma …; test: ELISA: 40 nM UspA2 30-539 coated, soluble laminin titrated in three-fold steps 0.03-60 µg/ml, rabbit anti-laminin pAb + HRP anti-rabbit pAb
[12] = target: T3, methylamine-treated C3 (C3met) (human, UniProt P01024 23-667; P01024 672-1663); test: SPR (Biacore 2000), UspA protein amine-coupled on CM5 chip, C3met injected, steady state affinity model; UspA2^30-539 on the chip
T3 construct: mature; also called C3b-like molecule; [125I]-C3met
T3 sequence (P01024 23-667 limits assumed, chain 1 of 2): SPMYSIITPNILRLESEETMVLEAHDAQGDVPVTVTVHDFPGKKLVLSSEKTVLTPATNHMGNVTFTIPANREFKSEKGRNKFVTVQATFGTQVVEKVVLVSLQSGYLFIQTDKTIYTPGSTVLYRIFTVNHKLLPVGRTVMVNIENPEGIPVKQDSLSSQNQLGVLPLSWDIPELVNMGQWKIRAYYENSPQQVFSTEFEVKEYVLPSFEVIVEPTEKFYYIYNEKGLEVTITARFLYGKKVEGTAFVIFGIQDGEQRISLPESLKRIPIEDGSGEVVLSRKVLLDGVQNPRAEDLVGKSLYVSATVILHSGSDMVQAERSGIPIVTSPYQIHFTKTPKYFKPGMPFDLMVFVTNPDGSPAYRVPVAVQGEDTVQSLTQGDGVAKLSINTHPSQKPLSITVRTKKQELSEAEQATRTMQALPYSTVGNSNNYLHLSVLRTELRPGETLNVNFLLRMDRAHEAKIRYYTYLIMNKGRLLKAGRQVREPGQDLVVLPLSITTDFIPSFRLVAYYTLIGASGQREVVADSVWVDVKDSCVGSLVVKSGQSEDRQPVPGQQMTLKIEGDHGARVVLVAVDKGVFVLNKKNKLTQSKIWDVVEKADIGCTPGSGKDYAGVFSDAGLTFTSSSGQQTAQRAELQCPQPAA
T3 sequence (P01024 672-1663 limits assumed, chain 2 of 2): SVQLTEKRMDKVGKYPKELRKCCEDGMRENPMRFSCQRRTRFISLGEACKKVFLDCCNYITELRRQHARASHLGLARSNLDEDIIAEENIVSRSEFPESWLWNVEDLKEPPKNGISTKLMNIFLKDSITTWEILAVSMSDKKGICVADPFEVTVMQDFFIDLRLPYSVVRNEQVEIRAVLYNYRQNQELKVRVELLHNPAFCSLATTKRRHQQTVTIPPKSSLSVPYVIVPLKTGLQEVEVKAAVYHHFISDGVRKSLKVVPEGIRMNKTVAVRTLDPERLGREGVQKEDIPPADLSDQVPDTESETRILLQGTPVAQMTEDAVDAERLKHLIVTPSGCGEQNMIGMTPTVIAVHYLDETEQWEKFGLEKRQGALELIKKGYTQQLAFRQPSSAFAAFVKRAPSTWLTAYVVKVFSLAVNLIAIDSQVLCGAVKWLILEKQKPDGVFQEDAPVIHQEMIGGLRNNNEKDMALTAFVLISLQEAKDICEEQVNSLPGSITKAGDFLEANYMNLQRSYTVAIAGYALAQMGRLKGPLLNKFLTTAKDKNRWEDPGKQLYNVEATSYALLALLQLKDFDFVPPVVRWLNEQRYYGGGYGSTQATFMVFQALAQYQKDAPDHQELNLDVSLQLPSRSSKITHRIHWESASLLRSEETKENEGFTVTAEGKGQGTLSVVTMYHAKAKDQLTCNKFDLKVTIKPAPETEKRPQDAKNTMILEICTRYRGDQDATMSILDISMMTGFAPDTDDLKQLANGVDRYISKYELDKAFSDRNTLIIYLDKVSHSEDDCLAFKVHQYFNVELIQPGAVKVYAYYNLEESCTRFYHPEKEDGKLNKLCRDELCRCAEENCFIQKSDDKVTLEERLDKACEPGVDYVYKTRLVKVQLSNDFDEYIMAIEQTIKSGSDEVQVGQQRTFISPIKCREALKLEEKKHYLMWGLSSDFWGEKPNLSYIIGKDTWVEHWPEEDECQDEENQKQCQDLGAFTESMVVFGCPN

[13] = target: T3, methylamine-treated C3 (C3met); test: ELISA: 40 nM protein coated, C3met in solution, goat anti-human C3 pAb + HRP anti-goat pAb, background subtracted
[14] = target: T2, fibronectin (Sigma), soluble; test: ELISA: 40 nM fragment coated, fibronectin 80 µg/ml, rabbit anti-fibronectin pAb + HRP anti-rabbit pAb

complement C3 in normal human serum (from UniProt P01024 23-667; P01024 672-1663)
mfi [1]: 3.9
mfi [2]: 1.4

methylamine-treated C3 (C3met) (from UniProt P01024 23-667; P01024 672-1663)
mfi [3]: 2.7
mfi [4]: 14.9

B1: recombinant UspA2^165-318 (other)
chain: KDAIAKNNESIEDLYDFGHEVAESIGEIHAHNEAQNETLKGLITNSIENTNNITKNKADIQALENNVVEELFNLSGRLIDQKADIDNNINNIYELAQQQDQHSSDIKTLKKNVEEGLLELSDHIIDQKTDIAQNQANIQDLATYNELQDQYAQK
notes: also called UspA2^165-316; UspA2^155-318 (misprints)
binding result [5]: no binding

B2: recombinant UspA1^50-321 (other)
chain: KVGKATNKISGGDNNTANGTYLTIGGGDYNKTKGRYSTIGGGLFNEATNEYSTIGSGGYNKAKGRYSTIGGGGYNEATNQYSTIGGGDNNTAKGRYSTIGGGGYNEATIENSTVGGGGYNQAKGRNSTVAGGYNNEATGTDSTIAGGRKNQATGKGSFAAGIDNKANADNAVALGNKNTIEGENSVAIGSNNTVKKGQQNVFILGSNTDTTNAQNGSVLLGHNTAGKAATIVNSAEVGGLSLTGFAGASKTGNGTVSVGKKGKERQIVHVGA
binding result [6]: no binding
binding result [7]: no binding

B3: recombinant UspA2^302-458 (other)
chain: IQDLATYNELQDQYAQKQTEAIDALNKASSENTQNIEDLAAYNELQDAYAKQQTEAIDALNKASSENTQNIEDLAAYNELQDAYAKQQAEAIDALNKASSENTQNIAKNQADIANNITNLYELAQQQDKHRSDIKTLAKTSAANTDRIAKNKADDDA
binding result [5]: no binding

B4: recombinant UspA1^50-491 (other)
chain: KVGKATNKISGGDNNTANGTYLTIGGGDYNKTKGRYSTIGGGLFNEATNEYSTIGSGGYNKAKGRYSTIGGGGYNEATNQYSTIGGGDNNTAKGRYSTIGGGGYNEATIENSTVGGGGYNQAKGRNSTVAGGYNNEATGTDSTIAGGRKNQATGKGSFAAGIDNKANADNAVALGNKNTIEGENSVAIGSNNTVKKGQQNVFILGSNTDTTNAQNGSVLLGHNTAGKAATIVNSAEVGGLSLTGFAGASKTGNGTVSVGKKGKERQIVHVGAGEISDTSTDAVNGSQLHVLATVVAQNKADIKDLDDEVGLLGEEINSLEGEIFNNQDAIAKNQADIKTLESNVEEGLLDLSGRLLDQKADIDNNINNIYELAQQQDQHSSDIKTLKNNVEEGLLDLSGRLIDQKADLTKDIKALESNVEEGLLDLSGRLIDQKADIAKNQA
notes: also called N-terminal half of UspA1
binding result [8]: binds

B5: recombinant UspA2^30-177 (other)
chain: QAKNDITLEDLPYLIKKIDQNELEADIGDITALEKYLALSQYGNILALEELNKALEELDEDVGWNQNDIANLEDDVETLTKNQNAFAEQGEAIKEDLQGLADFVEGQEGKILQNETSIKKNTQRNLVNGFEIEKNKDAIAKNNESIED
binding result [9]: binds
binding result [10]: no binding

B6: recombinant UspA1^557-704 (other)
chain: NENKDGIAKNQADIQLHDKKITNLGILHSMVARAVGNNTQGVATNKADIAKNQADIANNIKNIYELAQQQDQHSSDIKTLAKVSAANTDRIAKNKAEADASFETLTKNQNTLIEQGEALVEQNKAINQELEGFAAHADVQDKQILQNQ
binding result [6]: no binding
binding result [7]: no binding

B7: recombinant UspA2^30-539 (M. catarrhalis Bc5) (other)
chain: QAKNDITLEDLPYLIKKIDQNELEADIGDITALEKYLALSQYGNILALEELNKALEELDEDVGWNQNDIANLEDDVETLTKNQNAFAEQGEAIKEDLQGLADFVEGQEGKILQNETSIKKNTQRNLVNGFEIEKNKDAIAKNNESIEDLYDFGHEVAESIGEIHAHNEAQNETLKGLITNSIENTNNITKNKADIQALENNVVEELFNLSGRLIDQKADIDNNINNIYELAQQQDQHSSDIKTLKKNVEEGLLELSDHIIDQKTDIAQNQANIQDLATYNELQDQYAQKQTEAIDALNKASSENTQNIEDLAAYNELQDAYAKQQTEAIDALNKASSENTQNIEDLAAYNELQDAYAKQQAEAIDALNKASSENTQNIAKNQADIANNITNLYELAQQQDKHRSDIKTLAKTSAANTDRIAKNKADDDASFETLTKNQNTLIEKDKEHDKLITANKTAIDANKASADTKFAATADAFTKNGNAITKNAKSITDLGTKVDGFDSRVTALDT
notes: also called UspA^230-539 [sic]
EC50 (read off the curve) [11]: ~3 µg/mL
Kd [12]: 3000 nM

B8: UspA2 446-539 (other)
recombinant truncated protein: TDRIAKNKADDDASFETLTKNQNTLIEKDKEHDKLITANKTAIDANKASADTKFAATADAFTKNGNAITKNAKSITDLGTKVDGFDSRVTALDT
binding result [5]: no binding
binding result [10]: no binding
binding result [13]: no binding

B9: recombinant UspA1^50-197 (other)
chain: KVGKATNKISGGDNNTANGTYLTIGGGDYNKTKGRYSTIGGGLFNEATNEYSTIGSGGYNKAKGRYSTIGGGGYNEATNQYSTIGGGDNNTAKGRYSTIGGGGYNEATIENSTVGGGGYNQAKGRNSTVAGGYNNEATGTDSTIAGGR
binding result [14]: no binding
binding result [7]: no binding

B10: UspA1 454-770 (other)
recombinant truncated protein: KADLTKDIKALESNVEEGLLDLSGRLIDQKADIAKNQADIAQNQTDIQDLAAYNELQDAYAKQQTEAIDALNKASSANTDRIATAELGIAENKKDAQIAKAQANENKDGIAKNQADIQLHDKKITNLGILHSMVARAVGNNTQGVATNKADIAKNQADIANNIKNIYELAQQQDQHSSDIKTLAKVSAANTDRIAKNKAEADASFETLTKNQNTLIEQGEALVEQNKAINQELEGFAAHADVQDKQILQNQADITTNKTAIEQNINRTVANGFEIEKNKAGIATNKQELILQNDRLNRINETNNHQDQKIDQLGYAL
binding result [7]: no binding

B11: recombinant UspA1^433-580 (other)
chain: KTLKNNVEEGLLDLSGRLIDQKADLTKDIKALESNVEEGLLDLSGRLIDQKADIAKNQADIAQNQTDIQDLAAYNELQDAYAKQQTEAIDALNKASSANTDRIATAELGIAENKKDAQIAKAQANENKDGIAKNQADIQLHDKKITNL
binding result [6]: no binding
binding result [7]: no binding

B12: recombinant UspA2^101-318 (other)
chain: LEDDVETLTKNQNAFAEQGEAIKEDLQGLADFVEGQEGKILQNETSIKKNTQRNLVNGFEIEKNKDAIAKNNESIEDLYDFGHEVAESIGEIHAHNEAQNETLKGLITNSIENTNNITKNKADIQALENNVVEELFNLSGRLIDQKADIDNNINNIYELAQQQDQHSSDIKTLKKNVEEGLLELSDHIIDQKTDIAQNQANIQDLATYNELQDQYAQK
binding result [5]: no binding

B13: recombinant UspA1^680-770 (other)
chain: KAINQELEGFAAHADVQDKQILQNQADITTNKTAIEQNINRTVANGFEIEKNKAGIATNKQELILQNDRLNRINETNNHQDQKIDQLGYAL
binding result [6]: no binding
binding result [7]: no binding
